According to article PMC2795169, “The Influence of Recombinant Production on the Immunologic Behavior of Birch Pollen Isoallergens” (PLoS ONE, 2009):
One block for each molecule: values may come before it.

Tests used:
Bet v 1.0401 = target: T1, Bet v 1.0401 (Betula pendula, UniProt P43177); test: ANS fluorescence titration, nonlinear regression; type: binding
T1 construct: gene BETV1D; full-length non-fusion protein, no tag, pET28b (Nco I/Eco RI), E. coli BL21 Star (DE3), codon-optimized gene, batch B purified without denaturation
T1 sequence (P43177 2-160): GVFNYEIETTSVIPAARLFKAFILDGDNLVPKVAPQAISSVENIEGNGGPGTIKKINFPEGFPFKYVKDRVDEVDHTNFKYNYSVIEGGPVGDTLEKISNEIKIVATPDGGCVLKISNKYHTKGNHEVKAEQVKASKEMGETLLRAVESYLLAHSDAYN

P43177 = test: dynamic light scattering; DLS in aqueous solution at a concentration of 1 mg/ml; conditions: other: dynamic light scattering
[1] = target: Recombinant Bet v 1.0401 production batch A (birch) (UniProt P43177); test: SEC-MALS; online HPSEC-light scattering (refractive index and right-angle light scattering), 0.5 ml/min, 0.1 M sodium phosphate pH 6.5, 150 mM sodium chloride

- Kd (Bet v 1.0401): 21.2 µM
Molecule: O=S(=O)(O)c1cccc2cccc(Nc3ccccc3)c12 [8-anilino-1-naphtalenesulfonic acid]

- percent of the protein as multimers of more than 2,000 kDa [1]: 2%
- percent of the protein as small oligomers of 70–80 kDa [1]: 12%
- stoichiometry N [1]: 4
B1: Recombinant Bet v 1.0401 production batch A (protein)
chain: MGVFNYEIETTSVIPAARLFKAFILDGDNLVPKVAPQAISSVENIEGNGGPGTIKKINFPEGFPFKYVKDRVDEVDHTNFKYNYSVIEGGPVGDTLEKISNEIKIVATPDGGCVLKISNKYHTKGNHEVKAEQVKASKEMGETLLRAVESYLLAHSDAYN
- percent of the protein as aggregates (RH 16 nm) by DLS (P43177): 34% RH of 16±8 nm
